Usually Km stands for the substrate concentration at which the rate is half of its maximum.

Substrate in the data set: CC(C)=CCc1cc(CO)ccc1O
Briefly: purified protein. In kind it is biochemical, Boreostereum vibrans. The following applies: NADPH 0.1 mM, 50 mM sodium phosphate pH 7.5, 28 °C, 30 min.

B1: VibO (Boreostereum vibrans) (protein)
chain: MAAVENFEGYVEPELFERPGTSLPNKLGVMPQLTWPNVLNGTNCEKPAVPNYKPPSKVDVIIIGAGPVGLTTAACLLRQGITVRILDRSPHPLPVGRADGLQPRSMEVFDLLGLGEEVYHVGIRVEHTTVYKDGKQHIFAESHQAPGNEAHYTGLHACTQTEVEHLLIRDLIRHDILVERPCTATSYTFDEEADASVTHPITVNITNEATGAEEVVTARFLVGSDGAHSMIRKSLPIEFPGVKTDLHWGIVDAVINSDFPHRWTFGTVLNSEYGGCLIIPRERNMVRLYVQLRAEPGKAFDHSKWGPEEILVILNKVFAPYTLSYAEPVDWYTILTINERVATSFTYKDRIFLAGDSCHVHSAKGAFGMNTGVMDAHNLAWKLAMLCRGIAKPSLLASYDVERRENALRAVATSARYLRFVGNCTFQAIDGSGEVDKEADELVVPPGEDKDVFYFKKFVGQVGRFLIGLDVDYAENALNKLSPAVSRARAGYRASNPRVALSRSHSGRLYHSFGHLGQFTLLVFASNMGGALNAKLHALDSYLAGPSSFYHAYGGADTFKIVVVVRATPSQADQRVKTFPFLSKAGHTVYDDQLPLSHFGGDAHALYGVSHEEGAIVVVRPDSWIGTSSTISDARSLESYFDGFLFKSTEGSY
notes: full length, N-terminal His6 tag, expressed in E. coli BL21(DE3) (pET28a(+)); domains cover residues 1-653; dimer; copurified FAD
In the case of B1, the Km worked out at 407 ± 83 µM and the kcat is 0.111 ± 0.010 min^–1.

(Values after PMC10257657, “A flavin-monooxygenase catalyzing oxepinone formation and the complete biosynthesis of vibralactone” (Nature Communications, 2023).)
